We go through eleven molecules from paper PMC9352664 (Nature Communications, 2022).

Assay [1] has as its target HiSiaQM K273C-biotin (Haemophilus influenzae) (UniProt P44543). Briefly: SPR.
The target of assay [2] is HiSiaQM (wild type) (Haemophilus influenzae) (UniProt P44543). As to the kind of experiment: single-molecule TIRF microscopy on solid-supported bilayers; HiSiaQM in DOPC solid-supported bilayers, AF-647-labelled P-domain without sialic acid; 20 mM HEPES, 150 mM NaCl, pH 7.4.
The target of assay [3] is T1, HiSiaP (P-domain) (Haemophilus influenzae, UniProt P44542, E195R).
T1 construct: gene siaP
The conditions noted are these: read-out: affinity; 50 mM Tris, 50 mM NaCl, pH 8; one approximate value printed for all three mutants.

For assay [4], the target named is T2, HiSiaP (P-domain) (Haemophilus influenzae, UniProt P44542, S83R).
T2 construct: gene siaP
The conditions noted are these: read-out: affinity; 50 mM Tris, 50 mM NaCl, pH 8; one approximate value printed for all three mutants.

The target in assay [5] is T3, HiSiaP (P-domain) (Haemophilus influenzae, UniProt P44542, D81R).
T3 construct: gene siaP
The conditions noted are these: read-out: affinity; 50 mM Tris, 50 mM NaCl, pH 8; one approximate value printed for all three mutants.

The target in a further assay is T4, HiSiaQM K273C-biotin (Haemophilus influenzae, UniProt P44543, Maleimide-PEG2-biotin on the introduced cysteine K273C).
T4 chain: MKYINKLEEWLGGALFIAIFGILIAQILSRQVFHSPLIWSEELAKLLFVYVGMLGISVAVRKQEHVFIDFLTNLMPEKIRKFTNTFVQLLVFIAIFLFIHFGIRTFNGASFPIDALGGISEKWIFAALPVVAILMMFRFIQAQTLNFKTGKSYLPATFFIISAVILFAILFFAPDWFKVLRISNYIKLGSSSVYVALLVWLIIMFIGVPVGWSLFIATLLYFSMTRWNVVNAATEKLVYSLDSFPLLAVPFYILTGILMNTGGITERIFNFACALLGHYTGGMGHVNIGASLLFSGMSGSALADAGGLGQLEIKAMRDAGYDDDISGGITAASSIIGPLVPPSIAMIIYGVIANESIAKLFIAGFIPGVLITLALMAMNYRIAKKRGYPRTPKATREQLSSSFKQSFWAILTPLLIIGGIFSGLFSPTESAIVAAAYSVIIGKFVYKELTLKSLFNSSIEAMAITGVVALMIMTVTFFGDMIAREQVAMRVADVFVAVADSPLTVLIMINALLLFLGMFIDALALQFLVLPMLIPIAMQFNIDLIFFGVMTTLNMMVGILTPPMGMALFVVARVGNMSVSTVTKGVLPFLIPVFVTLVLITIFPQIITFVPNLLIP

For assay [6], the target named is T5, HiSiaQM (wild type) (Haemophilus influenzae, UniProt P44543).
T5 construct: also called QM-domains; native QM-domains
Briefly: single-molecule TIRF microscopy on solid-supported bilayers; HiSiaQM in DOPC solid-supported bilayers stained with VHHQM3-AF-555, incubated at least 30 min, bilayer washed 5 times. The conditions noted are these: both partners purified.

For assay [7], the target named is T5, HiSiaQM (wild type). As to the kind of experiment: single-molecule TIRF microscopy on solid-supported bilayers; HiSiaQM in DOPC solid-supported bilayers pre-incubated with unlabelled VHHQM3 for at least 30 min, then AF-647-labelled P-domain added. The conditions noted are these: both partners purified.

The molecule “HiSiaP (wild type) (from UniProt P44542 24-329) (natural protein)” displayed a Kd in assay [1] of 1000 nM.

For the molecule “HiSiaP K254C labelled with AF-647 (from UniProt P44542) (natural protein; other documents disagree on this pair)”, the reduction of P–QM binding events in the absence of sialic acid in assay [2] stood at 50%. As to `CC(=O)N[C@H]1[C@H]([C@H](O)[C@H](O)CO)OC(O)(C(=O)O)C[C@@H]1O` (stereo partly shown) [sialic acid], the Kd at HiSiaP (P-domain) [3], at HiSiaP (P-domain) [4] and at HiSiaP (P-domain) [5] was approximately 50 nM in each case.

B1: VHHQM9 (VHH)
VHH: QLQLVESGGRSVQAGGSLRLSCAASGRAFTMAWFRQAPGKEREFVAARTWPVEYGYYADSVKDRFTISRDNAKNILYLQMTSLHPEDTAMYYCAASTANRDSVNVRFSDQYAYWGPGTQVTVSV
Take B1: in the assay with HiSiaQM K273C-biotin, the Kd is 0.36 nM.

B2: VHHQM7 (VHH)
VHH: QVQLVESGGGLVQPGGSLRLSCAASGFTLSYHAIGWFRQAPGKEREGVSFISSSGSSTNYADSVKGRFTISKDNAKNTVYLQMDSLKPEDTAVYYCARSAAYGSSWLNPSRYDYWGQGTQVTVSS
B2 had a Kd with HiSiaQM K273C-biotin of 4.88 nM.

B3: VHHQM6 (VHH)
VHH: QLQLVESGGGLVQAGGSLRLSCTASRVTLNYHDIGWFRQAPGKEREGVSYISSSGGSTKYADFVKGRFTISRDNAKNTVYLQMNSLKPEDTAVYYCARSAAYGSSWLNPSRYDYWGQGTQVTVSS
In turn, B3 had a Kd with HiSiaQM K273C-biotin of 0.64 nM.

B4: VHHQM3 S85C labelled with AF-555 (VHH)
VHH: QLQLVETGGGLVQPGGSLRLSCTASRVTLDYHDIGWFRQAPGKEREGVSYISSSGGSTNYADSVKGRFTISRDNAKNTVYLQMNCLKPEDTAVYYCARSSAYGSSWLNPSRYDYWGQGTQVTVSS
Turning to B4, the binding result with HiSiaQM (wild type) [6] is given as “binds”.

B5: VHHQM3 (VHH)
VHH: QLQLVETGGGLVQPGGSLRLSCTASRVTLDYHDIGWFRQAPGKEREGVSYISSSGGSTNYADSVKGRFTISRDNAKNTVYLQMNSLKPEDTAVYYCARSSAYGSSWLNPSRYDYWGQGTQVTVSS
Consider B5, for which the binding result with HiSiaQM (wild type) [7] is “binds”.

B6: VHHQM2 (VHH)
VHH: QVQLVESGGGLVQPGESLRLSCAASGSTFSSYGMSWVRQAPRKGPEWVSSISASGTLTRYADFVKGRFTVSRDNAKNTLFLQMNSLKPEDTALYYCARGGAPSVVYNRHDWGQGTQVTVSS
On to B6, for which the Kd with HiSiaQM K273C-biotin came to 9.83 nM.

B7: VHHQM4 (VHH)
VHH: QVQLVETGGGLVQPGGSLRLSCAASAFTYDNYGIGWFRQAPGKEREGVSCISSSGGTVNYADSVKGRFTISRDNAKNTVYLQMNSLKPEDTAVYYCAALKYGSSCRFLRAANFGSWGQGTRVTVSS
Take B7: the Kd with HiSiaQM K273C-biotin was 10.4 nM.

B8: VHHQM5 (VHH)
VHH: QVQLVESGGGLVQPGGSLRLSCATSRFTLNYYDIGWFRQAPGKEREGVSCITSSGGNTNYADSVKGRFTISRDNAKNTVYLQMNSLKPEDTAIYYCAAAKYGSAWPCSSMPLRDFGSWGQGTQVTVSS
B8 displayed a Kd with HiSiaQM K273C-biotin of 1.06 nM.
